According to the DeepSol protein solubility set:

assay: soluble on expression in E. coli; label from the status in PepcDB or PDB records

**Q.** Which “soluble on expression in E. coli” value does the source give for “MGSDKIHHHHHHMIKSISTGRTQQGYFSPVEKQMFGAALLADPDTSSPFSDVLSIAESGCSSSLLQQLTSVTKRFRHLKPEQYLLRQQDQFDSLFVVKKGALKSYRLTPEGEEIVTGFYMEGDVIGAGGLGNHKHFYSVVALEPSSLYEIPFAKLLQQSAMEPIVQQLMLKLLSQEMQADQSLRLIQLKQVKAAIASLILNIANRLTATQITLPMSRVDIANLLGVASETVCREFTRLQKQGLLSVNRKHIVINDLPQLQLAAGGDCY” here?
**A.** not soluble

**Q.** With “MGSDKIHHHHHHMIKYIALASVVLLVGCSSTAKKPIADDPFYAPVYPDTVPTQVAATGSIYLDSQASSLYSDIRAHRVGDIITVTLKESTQASKSANNEIKKGSDLSVEPVYAGGKNISISGVPIDLGYSDSMNTKRESDADQSNSLDGSISANIIQVLSNGNLVIRGEKWISINNGDEFIRVTGMIRSEDINPDNTIDSTRVANARIQYSGTGTFADSQKVGWLSSFFMSDWWPF” as the sequence, how does the “soluble on expression in E. coli” value read?
**A.** not soluble

**Q.** For “MGSDKIHHHHHHMIMEELAKKIEEEILNHVREPQIPDREVNLLDFGARGDGRTDCSESFKRAIEELSKQGGGRLIVPEGVFLTGPIHLKSNIELHVKGTIKFIPDPERYLPVVLTRFEGIELYNYSPLVYALDCENVAITGSGVLDGSADNEHWWPWKGKKDFGWKEGLPNQQEDVKKLKEMAERGTPVEERVFGKGHYLRPSFVQFYRCRNVLVEGVKIINSPMWCVHPVLSENVIIRNIEISSTGPNNDGIDPESCKYMLIEKCRFDTGDDSVVIKSGRDADGRRIGVPSEYILVRDNLVISQASHGGLVIGSEMSGGVRNVVARNNVYMNVERALRLKTNSRRGGYMENIFFIDNVAVNVSEEVIRINLRYDNEEGEYLPVVRSVFVKNLKATGGKYAVRIEGLENDYVKDILISDTIIEGAKISVLLEFGQLGMENVIMNGSRFEKLYIEGKALLK”, which “soluble on expression in E. coli” value is on record?
**A.** not soluble

**Q.** For “MGSDKIHHHHHHMINQERLVNEFMELVQVDSETKFEAEICKVLTKKFTDLGVEVFEDDTMAVTGHGAGNLICTLPATKDGVDTIYFTSHMDTVVPGNGIKPSIKDGYIVSDGTTILGADDKAGLASMFEAIRVLKEKNIPHGTIEFIITVGEESGLVGAKALDRERITAKYGYALDSDGKVGEIVVAAPTQAKVNAIIRGKTAHAGVAPEKGVSAITIAAKAIAKMPLGRIDSETTANIGRFEGGTQTNIVCDHVQIFAEARSLINEKMEAQVAKMKEAFETTAKEMGGHADVEVNVMYPGFKFADGDHVVEVAKRAAEKIGRTPSLHQSGGGSDANVIAGHGIPTVNLAVGYEEIHTTNEKIPVEELAKTAELVVAIIEEVAK”, which “soluble on expression in E. coli” value is on record?
**A.** not soluble

**Q.** Which “soluble on expression in E. coli” value does the source give for “MGSDKIHHHHHHMINRKFINTVLAKRSTRSGLCQSATRTSRWLAVAIAILLANNSHADTSQTNVAAPAKTSACYLDGLDEQLQCGKITVLENPQLPDGKQIDIHFAILPAIKNTHPNEALLAIAGGPGQSAIENAAFFNRMLTKVRQQRDILLIDQRGTGKSNILSCDDDTTELLSMNDDDLDIIAMTEKCLGQIDADVSQYGSNTALTDFEAVREYLGYQKLHLYGISYGTRMAQLYMRHYPEALLTVTLDGVVPMQQSVVAIGDSIERGLNVLWRDCKSTPACQQQFPDLADEYNKVDQLLATAPISQQVRDPQTDELSEFLLTRSKFSGAIRMAMYMANIRALIPHAIHQAAQGNYQPILGIYTLTADSTGIAMGMHASVVCGEDIHRITDQMRKDAKESYISGNMLEGLEKTCQAWPIPQVDDNFSEPILSDIPTLLLSGELDPATPPNWGALAQEKLTKSKHFIAPYATHGVAGQSCGNDLVAQLVDQGSVKDINGECLQKDVRRSFYLNANTVEALPVIDTPTDIETTAPANTAADKE” here?
**A.** not soluble

**Q.** Which “soluble on expression in E. coli” value does the source give for “MGSDKIHHHHHHMINYHPDQHLLSLHAKGELPLSMSIAISAHAELCPHCQQQLDQMTIALSEQQFESAVKTQSVDTNDNHQLDALLEQLLNSTLDTLEIEQASTIDTIEDNSVSIKGQHYPLPKVFRKQINASWQGIGKVSRLRLDTGEPQARASLLHIAANGEIPEHTHKGAELTLLLAGEFSDCYNTYKPGDFMLLDKEHQHSPKTLEGCLCYTIVDAPLYFTKGFSKLLNPIGDLLY” here?
**A.** not soluble

**Q.** With “MGSDKIHHHHHHMIRVLVLYFTRGGHTAKIASAIADQLKNRGAQVDLVDINSAAATRINWPDYQVVALGACVLYGTYDKTVFQFIEQHNQALSALPNSFFCVNVVARNPEKRIPENNKYLQKFIALSPWTPADLKIIAGKVDYPSWPWYDRLAIQLIMKMTKGPTDPKSVIDYTDWEDVKIYADHLLDLTEVTATT” as the sequence, how does the “soluble on expression in E. coli” value read?
**A.** not soluble

**Q.** For “MGSDKIHHHHHHMISNQILQNTIDGLKGITRTDLCVIDVEGKILAATFPNAEAFIEPAQAFVASPADSQVINGCQFFKVFDDHQLEYVLLAYGDSEDVYMIGKIASFQIQNLLVAYKERFDKDNFIKNLLLDNLLLVDIYNRAKKLHIDIEVRRVVFIVETNREKDGNELEKIRSLFGGKSKDFVTAVDEKNIIVVKELAENETYDDLRKTAEVILNLFRSEADGVHIAYGTVINELKEVSRSYKEARMALDVGKIFFEERNIIAYSQLGIGRLIYQLPIPLCKMFIKEIFDGKSPDDFDEEILSTINKFFENSLNVSETSRQLYIHRNTLVYRLDKLQKSTGLDLRVFEDAITFKIALMVVKYMKYMESMDY”, which “soluble on expression in E. coli” value is on record?
**A.** not soluble

**Q.** Which “soluble on expression in E. coli” value does the source give for “MGSDKIHHHHHHMITFIGHVSKDVNVVDGKREIAYGGGVVMGAITSSLLGVKTKVITKCTREDVSKFSFLRDNGVEVVFLKSPRTTSIENRYGSDPDTRESFLISAADPFTESDLAFIEGEAVHINPLWYGEFPEDLIPVLRRKVMFLSADAQGFVRVPENEKLVYRDWEMKEKYLKYLDLFKVDSREAETLTGTNDLRESCRIIRSFGAKIILATHASGVIVFDGNFYEASFRSWSLEGRTGRGDTCTAAFLVGFVFKKMSIEKATKFAAAVTSVKMRHPGPLRREDLEAISGDQYF” here?
**A.** soluble

**Q.** For “MGSDKIHHHHHHMITVSNVSVQFGKRVLFNDVNLKFTSGNCYGIIGANGAGKSTFLRTIYGDLDPTTGTIALGPGERLSVLSQDHFKWDAYTVMDTVMMGHTVLWDIMKQREVLYAKEDFTDEDGLKVSELEEKFAELDGWNAESDAAMLLSGLGIKEDKHYTLMGELSGKEKVRVMLAQALYGNPDNLLLDEPTNDLDMETVTWLEEYLSNFEHTVLVVSHDRHFLDSVCTHTVDIDYGKINMFAGNYSFWYESSQLALRQQQNQKAKAEEKKKELEEFIRRFSANVAKSKQTTSRKKMLEKLNVEEIKPSSRKYPGIIFTPEREPGNQILEVSGLSKKTEEGVVLFSDVNFNIEKGDKVVFLSRNPRAMTAFFEIINGNMKPDAGQFNWGVTITTAYLPLDNTDFFNTDLNLVDWLSQFGEGNEVYMKGFLGRMLFSGEEVLKKVSVLSGGEKMRCMIARMQLRNANCLILDTPTNHLDLESIQAFNNNLKTYKGNILFSSHDHEFIQTVANRIIELTPNGIIDKMMEYDEYITSDHIKELRAKMYGDK”, which “soluble on expression in E. coli” value is on record?
**A.** not soluble

**Q.** Which “soluble on expression in E. coli” value does the source give for “MGSDKIHHHHHHMIVVKPSPGSAQSIPANANGPKWDVGEAVSQLSWDDLRIIKTLSDCSNRAATAKKLGINVSTVSRRVAQVEKTLGVALFDHRKAGYLLTAEGVELRALAERVELDIVSVTRRVSRAGQGPLGKLRITTSDSLLLYFLTPIIADFKALNEGITIEVLVGNQTLSLARDESDIAVRATKKPTDTLVGRKLANIAWAAYGSVKQAAITDPFAEGQAWVSYSGGLCGLKATSYVECRVPSELISYRTDSVAAASAAIAAGLGFGFLPCMLGDITPGLVRAGPVVQELQDELWLLTHQDIRKSWRVKAFMTFCAAAVADLKPLVEGQQAIPAS” here?
**A.** not soluble

**Q.** Which “soluble on expression in E. coli” value does the source give for “MGSDKIHHHHHHMIWNIDYFCNLRCKSCNAWQGKIFFPEDQIDKHLQEMKNNGIKIVSVTGGEPTLNKNVVDIIRKLKENHFFTHIATNGTNPYVLRKLYPYLDAVTISLDSNIPEEHNAYRGLKIFDTVVSNIKEAKSKVKIVTANMLVTNFNYFKVGEIADFANNELGVPLSMCFPEQDAYYFQDFQVTNDMIRQAFSYAYENYHKHVFGNMRSYYKEAVDFIDGKGSRACKAGQEIFYTDYRGKVHPCFEHVEVVLNKKPTWDIYDNKCHKCFTECFLEPSIDHTFEAASLIGKIWWFNHVKRRDIKYIETKRPKQVPS” here?
**A.** not soluble

**Q.** With “MGSDKIHHHHHHMIYIGLTGWGDHDELYTMGTKPSEKLYTYGSHFPTVEVDSSFYAIQPKRNMEKWASDTPDCFRFVVKAYQGLTGHQRGEIPFSSKEDMFAAFVESLQPLLESNKLAMVLFQFPPWFDCTKEHVRYLRYCKQQMGKIPVALEFRHQSWFRPSVRERTLSFMREEGWIHSICDEPQGGEGSVPTVLVPSNEENVLVRFHGRNVEGWRRPQEGNWREVRYLYRYSKEELAEWAEHLKQLAAQVKDVYVLFNNNSGGDAAANAKQMLELLEIEYHGLTPKQLNLFE” as the sequence, how does the “soluble on expression in E. coli” value read?
**A.** not soluble

**Q.** For “MGSDKIHHHHHHMKAFQYAARAQRIVFGAGTIRQVGEEIDALGASSVLVLSTPEQRRLAEQVSDLLGARAIGIFDRAVMHVPVETARAACAMAFELGADSVVAIGGGSTTGLAKAIALEMSVPVLAIPTTYAGSEMTTIYGLTDAGLKRTGTDVRVLPRTVIYDPELTYLLPAAISVTSGINALAHAAEGLYAHDRNPISDLMAREGIQAMAAALPALVSERDTARLREARAQALYGAWLCGAVLGSVGVALHHKLCHTLGGSFNLPHAETHTIILPHALAYNAKAAPDAMASIAQALGADNAAQGAFDLARTTGAPLGLRQIGMREDELDKACEIALQNQYPNPRPLEAGAIRELLQNAWEGRRPV”, which “soluble on expression in E. coli” value is on record?
**A.** not soluble

**Q.** Which “soluble on expression in E. coli” value does the source give for “MGSDKIHHHHHHMKALVVGACTRPVVNSLKKLNFEVYSVSHYNPVDLNADHKKYTINDKFHGHLADKYSEKELLNLSKEYVDLVDYIFVCSGIFESKTSKTPNWDVVGNSPKRIKNISDKYKTVKKLENLGFNVPVTYLVNNKYQFEKCLSELKSVVVKPISGSGGIGVTNIDFQNTDNLDINYPVLVQERIKSESYSASFIGSNFLCFNKQLINNNIYVGNISPYVLNLKNETIQEFEEVIASLDLLGMNGIDFMLKDGIPYIIEVNPRILGTYETIELSSRYNLSKAILENKPVKPKDCFFKKIVFSDKGSSYSIDKNPFLRDIPQKGTYIEEGEPVVTIIGRNMADVREMECGILRGV” here?
**A.** not soluble

**Q.** With “MGSDKIHHHHHHMKDVSIVLSGEAGQGIQTVENVLTRVLKDSGFHVFATKEYMSRVRGGNNTTEIRVSSRRVRSFVDRIDVLIPLGKGATERLKNRITEKTLVIGEEEFIKESPGEKIVIPFLNIAKQIGKSIYANSVAIGFLSGLLGADESALKDQITRQFSSKGEDIVNDNIRAALEGYKKGQELSQKIEFDVEKDPSIKNEVLLNGAEAVGLGAIAGGCNFVSSYPMSPSTSVLVFLAQHKNDFGIVVEQAEDEIAAMNMIIGAWYAGARGLVTTSGGGFALMEEALSLAGMIESPAVIHLAQRPGPATGLPTRTEQGDLNLALYAGHGDFPRVIYAPGNVEEAFYLTQKAFNVADKYQVPVFVLTDQYLVDSYYNLPGFDLNELKVEKHFIKTTRDYIRYAITEDGISPRGIPGYGEGLVRVDSDEHDEFGHITEDFNTRVRMVNKRLRKGETLKKEIVKPKLIGDENYRVLLVAWGSTLEPIKEAIEGLDGVALLHFSQVWPIDESVATYFEKAEKVVAVEGNATGQFANLIRQVTGFHIKDRILKYNGLQFSVEELKEKIAEVL” as the sequence, how does the “soluble on expression in E. coli” value read?
**A.** not soluble

**Q.** For “MGSDKIHHHHHHMKEAKKIDISKLKTGFLGKFPSHQLSRILSSEPDRLTEPEFLAKALKENKYVPYYYINVRENPTSIKIYRYVTKISNRDNDIDEVKNKFDSFLYGKSIVILDEVDFLQDYDVLYHITRHTKANLILLTQKVYWYMDTNDESVKSSLQPDHIVFYEYSSDEIREILKMRADEGLNKYDPDSLGLLSAMLVRNYRSDARIGIKALEIIGRMNEWDDDSVRTALKQAYVEVEGETLKNLGDRDLLILAALIKNQDTNRAYSEVSASSNLLLRGVSKSTFF”, which “soluble on expression in E. coli” value is on record?
**A.** not soluble
